Measurements published in the DeepSol protein solubility set.

test: soluble on expression in E. coli; label from the status in PepcDB or PDB records

Sequence	soluble on expression in E. coli
MGSDKIHHHHHHMRKHGGDVYAYSGQYENILDFSANTNAFIDTGVLSRYPEVSPGDIEKMILQYTGAKSLRVIIGPGLTHFIYRIPAWMGLRRSLIIEPNFNEYEASLLAYGSRTSSLGLGVLKRNPEIVRSYRPDSIFICSPVNPTGDLVDAGLLRKLSMEMSRMGGILFVDQAFGDFVPEHAEETVRIAEEMGNVIIGRSLTKILSIPSLRLGYILVSDQVFGMIRDREEPWAVCEPALEFVRKADLKALRDTSLKRIGEERSYLMEALENMGFEILGDPHANFIAFRSPFEIDLKKQLLKSGILIRDLSDYADFGKNCYRVAVRGRSENALLIQALRNAIL	not soluble
GQSGPLPKPSLQALPSSLVPLEKPVTLRCQGPPGVDLYRLEKLSSSRYQDQAVLFIPAMKRSLAGRYRCSYQNGSLWSLPSDQLELVATGVFAKPSLSAQPGPAVSSGGDVTLQCQTRYGFDQFALYKEGDPAPYKNPERWYRASFPIITVTAAHSGTYRCYSFSSRDPYLWSAPSDPLELVVT	soluble
MANMLKIAMLSTGEEVLHGDIVDSNAAWLAREFYQHGFSLAKRATVGDSLPALVEELMMLSFNSDVVIVNGGLGPTSDDITAQAAAQAAEQPLVLNADWLSQLEAFFIGRGRAMPESNRKQAMLPANAEVIDNPIGTACGFKMQINDCWFYFTPGVPKEFYKMVSEQILPNLQRQFPSVQGQQCSRLYTFGTSESSISDKLDKMHLPEGYTLGYRSYLPFIEVKLFGPDQDQERRLSLLKIIHSHLEQYVVSIDEPMLTYLGHVMAEKGLSLALAEQATQGGLSSWLLSDPNVEALAGHSWILSHRVSSELAHQDPLAAAFALAGATKDKCGTQMALVTGALKEDHVSVALSTPNGEWGQTVKFVRRFSAQEQKEWIATLAADMLLRYLTGRSMFVGYSAVERVKEMHLPSSVLN	not soluble
KSLTLVLHRDSGSLGFNIIGGRPSVDNHDGSSSEGIFVSKIVDSGPAAKEGGLQIHDRIIEVNGRDLSRATHDQAVEAFKTAKEPIVVQVLRRT	soluble
MFSPLECRLAVACKFQDDRYYKLFHQYFDLLAQVHSVVETMDGLWMLRVWRAQKFGPESIKERRERQLFHVTQFSFKRYIVPPNPRIGKAIEEFGKEYLIEINVYDEHRADLVSLNSGNFVAIQNVHAASTPHREIQILHGGGEAYQRGISTVPVDFEVDAFQNFKRKVESVLENVLYDENFIEFQQPEEVTENRVPEEPQLNIHKDPLPSDLPQ	soluble
MGSDKIHHHHHHMIIENLSQLYPKGYLSKTIGSEATYSIPVDDQFFIVNKAFLSIKEQHLLEALFPISENPTITGNHPWFSYLFQQAKLPAEGTFRMLQIQTNVTKELQAEWQFNLTKMFPDTVDCFSPSNNMYILVEEQSKNTFQQEEIQGIFLTLDTDFDCTSAVFVGNFYSSEDILRRCFHEEQRIFSEELNSSSRTTVFSLTDVALHYFTKEAMSQNVLVEYYRRLLNKDTDIQPIISALWKNQGNISSTAKDLFMHRNTLHYRLEKFFEQTGLSLKKMDDLIFCYLLLRK	not soluble
MGSDKIHHHHHHMQLTSENYYSQEANKEYMSVSGYKDFAGTYGKMPCEFYGMEKLNGRWEDEKSTALLVGSYVDSYFEGSLDQFKKDNPEIFTQKGELKANFKQAEEIIARIERDEYFMKYMSGQKQVIMTGELFGAKWKIKMDSYIPGVAIVDLKVMASITDLKWVKDIGYLDFVRYWGYDIQGAVYQEIVRQNTGEKLPFFIAGATKQTEPDIRIIHVTDNYLQEALHMVEMNMPRILRVKNGEVEPDRCELCDCCRHNRVLKKPISIMDLTAGI	not soluble
MGSDKIHHHHHHMKKIHGKVMVERHHLEILRAVERQGSLTAAAEQLHLTQSALSHAIRKLEQQLGTSVWLREGRQLRLTQAGHQLLALANRLLPQFEHAEMQIHQIAQGQRGSLRVGMECHPCYQWLLKVVGPYLQQWPDVDVDVKQEFQFGGMGALFGHDIDLLVTPDPLHKPGVRFEPVFDYEQVLVVSEDHSLADEKWVEPHQLEKETLITYPVAVERLDIFTRFFLPAHTAPARHKTIETTDIMLQMVAAGRGVSALPRWLVDDYARNMPIRALKLGQQGMPKQIFLGFRERDEAVDYLNAFVKLARSIRWN	not soluble
MGSDKIHHHHHHMNTLTLEYIKSILPPRPDNSHKMTFGHVLNIAGSLHYRGAAYLSSLSALRVGAGYVTLASSPSVCDSVSALTPNIVTFALRTLSPLSVHSLQRTANLHLKDAQIVDVQTLSPQAVLQLRDKLTQASAISIGSGLSIGQSTDQCIDITAINTELTVDVDVTLCTEMSAEISTDLNSDLNSDLNSDLRSELPICNVIKDNQPHSNELIPPQGNHGFFYALLNEIQTCTKPVIFDADALNFISHLLNPPVPFGTTTVTLPNKSIITPHPKELARLLNMDVATLQTQRMHFARLAAKQLNTIVVLKGKNTVITDGNDVFINPTGNSALAKAGTGDVLTGMISGFCAQGVSPINAACLGVYLHGLAGNIAAEDLSQYGMLASDLLSYIPKAILKVLAI	not soluble
MVKLMEVYEGKAKKMIPIDDDKLIMEFKDDATAFDGTKKARFKGKGWLNAQLSVIFFKLLEEHGIKTHFIGVAGGNRLIVEKLDMYPLEVVVRNVVAGSLKKRLPLPEGYELPEPIVELYYKNDELHDPMINYYHAKVLGISLDEIKKIEEIALKVNEILKDYLAKKGIILVDFKLEFGKDKNGDIVLADEISPDTCRFWDAKTKRSLDKDVFRFDKGDLIEAYKEIYERITGEKPEF	soluble
MGHHHHHHSGEVKPEVKPETHINLKVSDGSSEIFFKIKKTTPLRRLMEAFAKRQGKEMDSLRFLYDGIRIQADQTPEDLDMEDNDIIEAHREQIGGMRTYLDLLQHVLDHGVDRDDRTGTGTRSVFGYQMRFDLEEGFPVLTTKKLHLRSIIHELLWFLKGDTNIAYLKENGVTIWDEWADENGDLGPVYGYQWRSWPAPDGRHIDQIANLLKMLHTNPQSRRLIVSAWNPALVDEMALPPCHCLFQFYVANGRLSCQLYQRSADIFLGVPFNIASYALLTMMIAQVTGLKPGEFIHTLGDAHIYSNHFEQARLQLTRTPKKLPVMHINPDVKDLFAFRFEDFRLDGYEADPTIKAPIAV	soluble
MGSDKIHHHHHHMFQPLLDAFIESASIEKMVSKSPPPPLKIAVANWWGDEEIKEFKKSVLYFILSQRYAITLHQNPNESSDLVFSNPLGAARKILSYQNTKRVFYTGENESPNFNLFDYAIGFDELDFNDRYLRMPLYYAHLHYEAELVNDTTAPYKLKDNSLYALKKPSHHFKENHPNLCAVVNDESDLLKRGFASFVASNANAPMRNAFYDALNSIEPVTGGGSVRNTLGYKVGNKSEFLSQYKFNLCFENSQGYGYVTEKILDAYFSHTIPIYWGSPSVAKDFNPKSFVNVHDFNNFDEAIDYIKYLHTHPNAYLDMLYENPLNTLDGKAYFYQDLSFKKILDFFKTILENDTIYHNNPFIFYRDLHEPLISIDDLRVNYDDLRVNYDDLRVNYDDLRVNYDDLRVNYDDLRVNYDDLRVNYDDLRVNYDDLRVNYDDLRVNYDRLLQNASPLLELSQNTTFKIYRKAYQKSLPLLRTIRRWVKK	not soluble
MSSEAVAQATAATTSPEHGVPTSSATPTPPPSKGGGAGGGGGGEQQQVPFQMIPPGHFFANPFLNPYIPTAGAPAQEGEAQPQMVFSPAQYQEVMHHYFQQMMAASGAQFPIPFPMQFQPALQQPRPSSQASSSHRSEDDNGRQTAGSVVSSNVSPNHREVRPAEDSTETSGVVQNNDELLVPTSTSSDVTIGDVIEKSDSPENSQESAGGEEKSEEKRKLSGDRTDSLIRKQMSEMEKEITRRSQNKNIKTSGLSYTAPAPPSTEKSAPKESLNQLRSSFNLPDDSTTVGPVGPSTVPQQSQQFANNSMFMANAGNFVQNAFPIGVTMTPQATFGAAPGFQMMQPHQHNLFMQQPNPTFVNNGTNPFLQTQATLPNFVQNGTAPLVPTVSAQQFTPEQLAAAFAQQQIAQSAAPTPFDSPPPSMPSTSSGPSGALAPPPPPSHPIPRRVSGNGWPEENKENGTSTSTTNGAQSVPAAAGTDDPVWVLRDSYLKKMQREQRTSEEEEMSWQEAATAAQEAAENGGGDDQEEQETDRLLNGGTTGASTKGAERRGSVDKKKNSKETMVHEPAVLIEGVLFRARYLGSTQMLCESRGSKAARMAQAQEAVARVKAPEGDVQPSTEIDLFISTEKIMVLNTDLQRISDTDVRQDILMDHALRTISYIADIGDLVVLMARRMSTSHSDESCSDGDSSGGGVRKTPKVICHVFESDEASFIAQSIGQAFQVAYVEFLRANGIDDPSYLRQIDYQEVLNSQELLGDELEMFAKKETQKEVVVPKKAGEPLGIVVVESGWGSMLPTVVLAHMNPVGPAAHSNKLNIGDQIININGISLVGLPLSAAQTQIKNMKTATAVRMTVVSTPPVVEVRIRRPDTKYQLGFSVQNGVICSLLRGGIAERGGIRVGHRIIEINGTSVVAVAHDRIVNMLATAVGEIHMKTMPTSMFRLLTGQEQPQYI	not soluble
RYLLQRKASEALEVEVVDTWQADAVRDTRTLSGGESFLVSLALALALSDLVSHKTRIDSLFLDEGFGTLDSETLDTALDALDALNASGKTIGVISHVEAMKERIPVQIKVKKINGLGYSKLESAFAMK	not soluble
MGSDKIHHHHHHMNTRSDVSKLIAQRKPRHALPRALYSNLAVYQQDLQQLWHKDWIFAGHTFELEKSGQYLSLQIGDYPVAVVRGADGQVRAFHNSCRHRGSKVCPEAKGKVAKLVCPYHKWTFELDGRLLFAGNMGDDFDKSQYNLKPVHCEIVNTYIYVCVAEAAPDFSAFREAVTPFLMPHNLEDCKVAFESNLIEKGNWKLVFENNRECYHCDGTHPELMNSFVENLSVAGVGGSDDPQLTAHWDRCEAAGLPSRLVMDNDGRFRITRIPLSSGAVSYTMDGKPAVAVRLDASGEADIGALLYFNYPSTWNHFLGDHALSFRVLPLGPNETLVTTKWIVKKTAVEGLDYDLDRLTKVWLATNDQDRTLVEGAQVGVNSPAYEPGPFSSKAENGVCQFDDWYCEIMLDRLGDDRAQASIKLKSVG	not soluble
MRYALAACLLLLAASSFVDAKKKKIADDELGELLDNIDADEEKKSVEPAKNPCEDHQCGWGKECVVGKKGEPTCECISKCPELDGDPMDKVCANNNQTFTSLCDLYRERCLCKRKSKECSKAFNAKVHLEYLGECKKLDECTEEHMAQFPERMADWLFQVMKELKKRRELHKLEWEELLSEAENDDEKKHVYPVIWKFCELDTKPHDKSVSHHELIPITAPVIPMESCIKPFLEGCDANNDGNISIKEWGKCLGLKEGEIQERC	not soluble
TGEESLQQVAMRASRLGLPKEHLKMLSETNVDKICQIAEKEQPRIMVIDSIQVMHVSDVQSSPGSVAQVRESATALTRYAKQNNVAVFIVGHVTKDGTLAGPKVLEHIIDCSVLLDGGTDSRFRTLRSHKNRFGAVNELGVFAMTGQGLKEVSNPSAIFLSRGEEETSGSSVMVVWEGTRPLLVEIQALVDYSQLANPRRVAVGLEQNRLSLLLAVLHKHGGLQMADQDVFVNVVGGV	not soluble
MIRAVHSAAIVLLVFSYMAEFSGAASGGYAPASVGTQPVGTSFRDRLADGSPGPVMVVIPPGRFRMGAIFGGGDPDEKPVHEVSIPRAFAIGAYEVTFAEYDRFCEATGREKPKDGRRWFGPLSRNWGRGNKPAMNVSWDDAVAYVKWLSDQTGHRYRLPSEAEWEYAARGGKDTPYWWGGTVGQNKANCKGCGSRWDKKITAPVGSFAPNPYGMFDTAGNVWEWCVDTWHESYDGAPADGSPWIGGEDSRRVQRGGSFGSKPRYIRSSARGRGAQDGRYVYLGFRVVRELLEHHHHHH	not soluble
